The target of experiment [1] is Sp1, over-expressed and purified from HeLa cells infected with a vaccinia virus expression vector (Homo sapiens (Human), UniProt P08047). The experiment in a line: in vitro binding to DNA-bound Sp1 resin.
The target in the next experiment is radiolabeled nTBP (Homo sapiens (Human), UniProt P20226). The experiment in a line: Far Western with radiolabeled probe.
In experiment [2] the target is human TATA-binding protein (hTBP) (human, UniProt P20226). The experiment in a line: Far Western of immunoprecipitated hTFIID complex with 35S-labeled hTBP.
The target in experiment [3] is T1, GST-NTF-1 fusion protein containing the N-terminal 284 amino acids of NTF-1 (Drosophila, UniProt P13002).
T1 sequence: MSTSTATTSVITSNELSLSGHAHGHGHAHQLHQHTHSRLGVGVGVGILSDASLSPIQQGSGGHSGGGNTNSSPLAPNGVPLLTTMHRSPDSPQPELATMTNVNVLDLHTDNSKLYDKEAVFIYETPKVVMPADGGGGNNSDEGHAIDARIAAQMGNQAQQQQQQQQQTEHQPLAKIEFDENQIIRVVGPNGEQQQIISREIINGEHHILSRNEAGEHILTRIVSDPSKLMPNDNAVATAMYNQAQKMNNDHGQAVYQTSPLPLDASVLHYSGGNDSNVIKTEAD
The experiment in a line: GST-NTF-1 fusion binding assay.

Experiment [4] has as its target acidic activation domain of GAL4 (residues 768-881) (Saccharomyces cerevisiae (strain ATCC …, UniProt P04386)). The experiment in a line: yeast two-hybrid.
Experiment [5] deals with T2, Drosophila TATA-binding protein (dTBP) (Drosophila, UniProt P20227).
T2 sequence: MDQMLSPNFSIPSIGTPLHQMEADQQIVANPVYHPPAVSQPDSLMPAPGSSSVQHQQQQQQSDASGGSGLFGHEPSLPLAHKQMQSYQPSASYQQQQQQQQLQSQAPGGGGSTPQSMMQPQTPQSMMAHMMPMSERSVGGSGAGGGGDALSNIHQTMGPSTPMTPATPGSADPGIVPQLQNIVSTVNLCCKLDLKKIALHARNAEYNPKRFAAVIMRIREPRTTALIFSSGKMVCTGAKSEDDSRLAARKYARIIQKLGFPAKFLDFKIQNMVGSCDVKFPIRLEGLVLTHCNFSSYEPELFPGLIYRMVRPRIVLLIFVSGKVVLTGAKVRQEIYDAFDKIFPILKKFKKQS
The experiment in a line: coimmunoprecipitation of in vitro expressed proteins.

Experiment [6] has as its target control resin that lacked Sp1 (streptavidin-agarose with biotinylated oligonucleotides) (Streptomyces avidinii, UniProt P22629). The experiment in a line: 35S-TAF110 on control DNA affinity resin, SDS-PAGE, autoradiography.

B1: TAF110 deletion mutant 1-137 (other)
chain: MNTSQTAAGNRITFTSQPLPNGTISIAGNPGAVISTAQLPNTTTIKTIQAGIGGQHQGLQQVHHVQQQQQSQQQQQQQQQTQSAGQPLLNSMLPAGVVVGMRQQAPSQQQQKNVPTNPLSRVVINSHMAGVRPQSPS
As to B1, in experiment [1], the binding result is listed as “no binding”.

B2: hTAFII250 (other)
chain: MGPGCDLLLRTAATITAAAIMSDTDSDEDSAGGGPFSLAGFLFGNINGAGQLEGESVLDDECKKHLAGLGALGLGSLITELTANEELTGTDGALVNDEGWVRSTEDAVDYSDINEVAEDESRRYQQTMGSLQPLCHSDYDEDDYDADCEDIDCKLMPPPPPPPGPMKKDKDQDSITGVSENGEGIILPSIIAPSSLASEKVDFSSSSDSESEMGPQEATQAESEDGKLTLPLAGIMQHDATKLLPSVTELFPEFRPGKVLRFLRLFGPGKNVPSVWRSARRKRKKKHRELIQEEQIQEVECSVESEVSQKSLWNYDYAPPPPPEQCLSDDEITMMAPVESKFSQSTGDIDKVTDTKPRVAEWRYGPARLWYDMLGVPEDGSGFDYGFKLRKTEHEPVIKSRMIEEFRKLEENNGTDLLADENFLMVTQLHWEDDIIWDGEDVKHKGTKPQRASLAGWLPSSMTRNAMAYNVQQGFAATLDDDKPWYSIFPIDNEDLVYGRWEDNIIWDAQAMPRLLEPPVLTLDPNDENLILEIPDEKEEATSNSPSKESKKESSLKKSRILLGKTGVIKEEPQQNMSQPEVKDPWNLSNDEYYYPKQQGLRGTFGGNIIQHSIPAVELRQPFFPTHMGPIKLRQFHRPPLKKYSFGALSQPGPHSVQPLLKHIKKKAKMREQERQASGGGEMFFMRTPQDLTGKDGDLILAEYSEENGPLMMQVGMATKIKNYYKRKPGKDPGAPDCKYGETVYCHTSPFLGSLHPGQLLQAFENNLFRAPIYLHKMPETDFLIIRTRQGYYIRELVDIFVVGQQCPLFEVPGPNSKRANTHIRDFLQVFIYRLFWKSKDRPRRIRMEDIKKAFPSHSESSIRKRLKLCADFKRTGMDSNWWVLKSDFRLPTEEEIRAMVSPEQCCAYYSMIAAEQRLKDAGYGEKSFFAPEEENEEDFQMKIDDEVRTAPWNTTRAFIAAMKGKCLLEVTGVADPTGCGEGFSYVKIPNKPTQQKDDKEPQPVKKTVTGTDADLRRLSLKNAKQLLRKFGVPEEEIKKLSRWEVIDVVRTMSTEQARSGEGPMSKFARGSRFSVAEHQERYKEECQRIFDLQNKVLSSTEVLSTDTDSSSAEDSDFEEMGKNIENMLQNKKTSSQLSREREEQERKELQRMLLAAGSAASGNNHRDDDTASVTSLNSSATGRCLKIYRTFRDEEGKEYVRCETVRKPAVIDAYVRIRTTKDEEFIRKFALFDEQHREEMRKERRRIQEQLRRLKRNQEKEKLKGPPEKKPKKMKERPDLKLKCGACGAIGHMRTNKFCPLYYQTNAPPSNPVAMTEEQEEELEKTVIHNDNEELIKVEGTKIVLGKQLIESADEVRRKSLVLKFPKQQLPPKKKRRVGTTVHCDYLNRPHKSIHRRRTDPMVTLSSILESIINDMRDLPNTYPFHTPVNAKVVKDYYKIITRPMDLQTLRENVRKRLYPSREEFREHLELIVKNSATYNGPKHSLTQISQSMLDLCDEKLKEKEDKLARLEKAINPLLDDDDQVAFSFILDNIVTQKMMAVPDSWPFHHPVNKKFVPDYYKVIVNPMDLETIRKNISKHKYQSRESFLDDVNLILANSVKYNGPESQYTKTAQEIVNVCYQTLTEYDEHLTQLEKDICTAKEAALEEAELESLDPMTPGPYTPQPPDLYDTNTSLSMSRDASVFQDESNMSVLDIPSATPEKQVTQEGEDGDGDLADEEEGTVQQPQASVLYEDLLMSEGEDDEEDAGSDEEGDNPFSAIQLSESGSDSDVGSGGIRPKQPRMLQENTRMDMENEESMMSYEGDGGEASHGLEDSNISYGSYEEPDPKSNTQDTSFSSIGGYEVSEEEEDEEEEEQRSGPSVLSQVHLSEDEEDSEDFHSIAGDSDLDSDE
Regarding B2, the figures for the binding result (with radiolabeled nTBP; in experiment [2]) were “no binding” and “binds”, respectively.

B3: dTAFII40 (other)
chain: MSAEKSDKAKISAQIKHVPKDAQVIMSILKELNVQEYEPRVVNQLLEFTFRYVTCILDDAKVYANHARKKTIDLDDVRLATEVTLDKSFTGPLERHVLAKVADVRNSMPLPPIKPHCGLRLPPDRYCLTGVNYKLRATNQPKKMTKSAVEGRPLKTVVKPVSSANGPKRPHSVVAKQQVVTIPKPVIKFTTTTTTKTVGSSGGSGGGGGQEVKSESTGAGGDLKMEVDSDAAAVGSIAGASGSGAGSASGGGGGGGSSGVGVAVKREREEEEFEFVTN
Consider B3, for which the binding result in experiment [3] is reported as “no binding”.

B4: G4-110 (fl): full-length TAF110 fused to the DNA binding domain of GAL4, G4(1-147) (other)
chain: MNTSQTAAGNRITFTSQPLPNGTISIAGNPGAVISTAQLPNTTTIKTIQAGIGGQHQGLQQVHHVQQQQQSQQQQQQQQQTQSAGQPLLNSMLPAGVVVGMRQQAPSQQQQKNVPTNPLSRVVINSHMAGVRPQSPSITLSTLNTGQTPALLVKTDNGFQLLRVGTTTGPPTVTQTITNTSNNSNTTSTTNHPTTTQIRLQTVPAAASMTNTTATSNIIVNSVASSGYANSSQPPHLTQLNAQAPQLPQITQIQTIPAQQSQQQQVNNVSSAGGTATAVSSTTAATTTQQGNTKEKCRKFLANLIELSTREPKPVEKNVRTLIQELVNANVEPEEFCDRLERLLNASPQPCLIGFLKKSLPLLRQALYTKELVIEGIKPPPQHVLGLAGLSQQLPKIQAQIRPIGPSQTTTIGQTQVRMITPNALGTPRPTIGHTTISKQPPNIRLPTAPRLVNTGGIRTQIPSLQVPGQANIVQIRGPQHAQLQRTGSVQIRATTRPPNSVPTANKLTAVKVGQTQIKAITPSLHPPSLAAISGGPPPTPTLSVLSTLNSASTTTLPIPSLPTVHLPPEALRAREQMQNSLNHNSNHFDAKLVEIKAPSLHPPHMERINASLTPIGAKTMARPPPAINKAIGKKKRDAMEMDAKLNTSSGGAASAANSFFQQSSMSSMYGDDDINDVAAMGGVNLAEESQRILGCTENIGTQIRSCKDEVFLNLPSLQARIRAITSEAGLDEPSQDVAVLISHACQERLKNIVEKLAVIAEHRIDVIKLDPRYEPAKDVRGQIKFLEELDKAEQKRHEELEREMLLRAAKSRSRVEDPEQAKMKARAKEMQRAEMEELRQRDANLTALQAIGPRKKLKLDGETVSSGAGSSGGGVLSSSGSAPTTLRPRIKRVNLRDMLFYMEQEREFCRSSMLFKTYLK
Take B4: the binding result in experiment [4] is “no binding”.

B5: Drosophila TAF110 (dTAFII110), full-length (other)
chain: MNTSQTAAGNRITFTSQPLPNGTISIAGNPGAVISTAQLPNTTTIKTIQAGIGGQHQGLQQVHHVQQQQQSQQQQQQQQQTQSAGQPLLNSMLPAGVVVGMRQQAPSQQQQKNVPTNPLSRVVINSHMAGVRPQSPSITLSTLNTGQTPALLVKTDNGFQLLRVGTTTGPPTVTQTITNTSNNSNTTSTTNHPTTTQIRLQTVPAAASMTNTTATSNIIVNSVASSGYANSSQPPHLTQLNAQAPQLPQITQIQTIPAQQSQQQQVNNVSSAGGTATAVSSTTAATTTQQGNTKEKCRKFLANLIELSTREPKPVEKNVRTLIQELVNANVEPEEFCDRLERLLNASPQPCLIGFLKKSLPLLRQALYTKELVIEGIKPPPQHVLGLAGLSQQLPKIQAQIRPIGPSQTTTIGQTQVRMITPNALGTPRPTIGHTTISKQPPNIRLPTAPRLVNTGGIRTQIPSLQVPGQANIVQIRGPQHAQLQRTGSVQIRATTRPPNSVPTANKLTAVKVGQTQIKAITPSLHPPSLAAISGGPPPTPTLSVLSTLNSASTTTLPIPSLPTVHLPPEALRAREQMQNSLNHNSNHFDAKLVEIKAPSLHPPHMERINASLTPIGAKTMARPPPAINKAIGKKKRDAMEMDAKLNTSSGGAASAANSFFQQSSMSSMYGDDDINDVAAMGGVNLAEESQRILGCTENIGTQIRSCKDEVFLNLPSLQARIRAITSEAGLDEPSQDVAVLISHACQERLKNIVEKLAVIAEHRIDVIKLDPRYEPAKDVRGQIKFLEELDKAEQKRHEELEREMLLRAAKSRSRVEDPEQAKMKARAKEMQRAEMEELRQRDANLTALQAIGPRKKLKLDGETVSSGAGSSGGGVLSSSGSAPTTLRPRIKRVNLRDMLFYMEQEREFCRSSMLFKTYLK
As for B5, the binding result in experiment [5] and in experiment [6] was “no binding” throughout.

B6: dTAFII80 (other)
chain: MSLEVSNINGGNGTQLSHDKRELLCLLKLIKKYQLKSTEELLCQEANVSSVELSEISESDVQQVLGAVLGAGDANRERKHVQSPAQGHKQSAVTEANAAEELAKFIDDDSFDAQHYEQAYKELRTFVEDSLDIYKHELSMVLYPILVQIYFKILASGLREKAKEFIEKYKCDLDGYYIEGLFNLLLLSKPEELLENDLVVAMEQDKFVIRMSRDSHSLFKRHIQDRRQEVVADIVSKYLHFDTYEGMARNKLQCVATAGSHLGEAKRQDNKMRVYYGLLKEVDFQTLTTPAPAPEEEDDDPDAPDRPKKKKPKKDPLLSKKSKSDPNAPSIDRIPLPELKDSDKLLKLKALREASKRLALSKDQLPSAVFYTVLNSHQGVTCAEISDDSTMLACGFGDSSVRIWSLTPAKLRTLKDADSLRELDKESADINVRMLDDRSGEVTRSLMGHTGPVYRCAFAPEMNLLLSCSEDSTIRLWSLLTWSCVVTYRGHVYPVWDVRFAPHGYYFVSCSYDKTARLWATDSNQALRVFVGHLSDVDCVQFHPNSNYVATGSSDRTVRLWDNMTGQSVRLMTGHKGSVSSLAFSACGRYLASGSVDHNIIIWDLSNGSLVTTLLRHTSTVTTITFSRDGTVLAAAGLDNNLTLWDFHKVTEDYISNHITVSHHQDENDEDVYLMRTFPSKNSPFVSLHFTRRNLLMCVGLFKS
Consider B6, for which the binding result in experiment [3] is “no binding”.

For the origin of these results see US5534410, “TATA-binding protein associated factors drug screens” (The Regents of the University of California, dated 1996).
